# Results published in patent US20190112340A1 (US Dept. of Health and Human Services, published 2019).
# B1: D25 Fab (Fab, V domains shown)
# VH: QVQLVQSGAEVKKPGSSVMVSCQASGGPLRNYIINWLRQAPGQGPEWMGGIIPVLGTVHYAPKFQGRVTITADESTDTAYIHLISLRSEDTAMYYCATETALVVSTTYLPHYFDNWGQGTLVTVSS
# VL: DIQMTQSPSSLSAAVGDRVTITCQASQDIVNYLNWYQQKPGKAPKLLIYVASNLETGVPSRFSGSGSGTDFSLTISSLQPEDVATYYCQQYDNLPLTFGGGTKVEIKR
# B2: D25 antibody (antibody, V domains shown)
# VH: B1 VH
# VL: B1 VL
# Assays:
# sc8 DS-Cav1 = test: BLI (Octet), F on Ni-NTA tips, Fab in solution
# sc11 DS-Cav1 = sc11 DS-Cav1 (Engineered disulfide 155C-290C. Engineered cysteines 512C/513C. Glycoprotein; one protomer is given.); test: BLI (Octet), F on Ni-NTA tips, Fab in solution
# sc9-19 DS-Cav1 [1] = target: T1, sc9-19 DS-Cav1 (Engineered disulfide 155C-290C. Glycoprotein; it assembles as a trimer and one protomer is given.); test: BLI (Octet), F on Ni-NTA tips, Fab in solution
# sc9-24 DS-Cav1 [2] = test: BLI (Octet), F on Ni-NTA tips, Fab in solution
# sc9 DS-Cav1-105Q = sc9 DS-Cav1-105Q (Engineered disulfide 155C-290C. Glycoprotein; it assembles as a trimer and one protomer is given.); test: BLI (Octet), F on Ni-NTA tips, Fab in solution
# RSV F sc9-10 DS-Cav1 [3] = target: T2, RSV F sc9-10 DS-Cav1 (human RSV subtype A (strain A2)); test: BLI (Octet), F on Ni-NTA tips, Fab in solution
# RSV F sc9-9 DS-Cav1 = RSV F sc9-9 DS-Cav1 (human RSV subtype A (strain A2), UniProt P03420 26-96; P03420 145-513); test: BLI (Octet), F on Ni-NTA tips, Fab in solution
# [4] = target: sc9-10 DS-Cav1 Q98C, Q361C L95M-I221M-R429K (B18537); test: BLI (Octet), F on Ni-NTA tips, Fab in solution
# [5] = target: sc9-10 DS-Cav1 Q98C, Q361C S46G-E92D-L95M-S215P-I217P-I221M-R429K-K465Q (Long (VR26)); test: BLI (Octet), F on Ni-NTA tips, Fab in solution
# sc9-19 DS-Cav1 [6] = target: T1, sc9-19 DS-Cav1; test: BLI (Octet), D25 Fab binding after/before stress
# sc9-24 DS-Cav1 [7] = test: BLI (Octet), D25 Fab binding after/before stress
# RSV F sc9-10 DS-Cav1 [8] = target: T2, RSV F sc9-10 DS-Cav1; test: BLI (Octet), D25 Fab binding after/before stress
# [9] = target: T3, bRSV F ATue51908 sc9-10 DS-Cav1 A149C Y458C (bovine RSV, strain ATue51908 …); test: Fab binding to purified bRSV F trimer (Octet BLI as in Example 1)
# bRSV F RB94 DS-Cav1 [10] = target: T4, bRSV F RB94 DS-Cav1 (bovine RSV, strain RB94, UniProt P23728 26-109; P23728 137-513); test: as above
# [11] = target: T5, bRSV F 391-2 sc9 DS-Cav1 Q98C Q361C (bovine RSV, strain 391-2, UniProt P22167 26-513); test: as above
# [12] = target: T6, bRSV F strain 391-2 sc9-10, DS-Cav1, Q98C-Q361C (bovine RSV, strain 391-2); test: as above
# bRSV F 391-2 DS-Cav1 [13] = target: T7, bRSV F 391-2 DS-Cav1 (bovine RSV, strain 391-2, UniProt P22167 26-574); test: as above
# bRSV F ATue51908 DS-Cav1 [14] = target: T8, bRSV F ATue51908 DS-Cav1 (bovine RSV, strain ATue51908, UniProt P22167 26-109; P22167 137-513); test: as above
# [15] = target: T3, bRSV F ATue51908 sc9-10 DS-Cav1 A149C …; test: D25 binding to stressed pre-F trimer as a fraction of the untreated protein (physical stability)
# bRSV F RB94 DS-Cav1 [16] = target: T4, bRSV F RB94 DS-Cav1; test: as above
# [17] = target: T5, bRSV F 391-2 sc9 DS-Cav1 Q98C Q361C; test: as above
# [18] = target: T6, bRSV F strain 391-2 sc9-10, DS-Cav1, …; test: as above
# bRSV F 391-2 DS-Cav1 [19] = target: T7, bRSV F 391-2 DS-Cav1; test: as above
# bRSV F ATue51908 DS-Cav1 [20] = target: T8, bRSV F ATue51908 DS-Cav1; test: as above
# RSVF Cav1only = test: ELISA after 1 week at 4 °C
# sc9-10 Cav1only = test: ELISA after 1 week at 4 °C
# sc9-10 Cav1only 98-361 = test: ELISA after 1 week at 4 °C
# sc9-10 Cav1only 99-361 = test: ELISA after 1 week at 4 °C
# sc9-10 Cav1only 100-361 = test: ELISA after 1 week at 4 °C
# sc9-10 Cav1only 98-362 = test: ELISA after 1 week at 4 °C
# sc9-10 Cav1only 99-362 = test: ELISA after 1 week at 4 °C
# sc9-10 Cav1only 100-362 = test: ELISA after 1 week at 4 °C
# sc9-10 Cav1only 146-458 = test: ELISA after 1 week at 4 °C
# sc9-10 Cav1only 369-455 = test: ELISA after 1 week at 4 °C
# [21] = target: sc9-10 A149C Y458C Long CAV1only; test: ELISA after 1 week at 4 °C
# [22] = target: sc9-10 N183GC N428C Long CAV1only; test: ELISA after 1 week at 4 °C
binder,measurement,setting,value
B1,Kd,sc8 DS-Cav1,7400 pM
same,Kd,sc11 DS-Cav1,700 pM
same,Kd,sc9-19 DS-Cav1 [1],800 pM
same,Kd,sc9-24 DS-Cav1 [2],800 pM
same,Kd,sc9 DS-Cav1-105Q,700 pM
same,Kd,RSV F sc9-10 DS-Cav1 [3],800 pM
same,Kd,RSV F sc9-9 DS-Cav1,200 pM
same,Kd,[4],100 pM
same,Kd,[5],100 pM
same,"fractional D25 reactivity, 50 °C",sc9-19 DS-Cav1 [6],0.9
same,"fractional D25 reactivity, 70 °C",sc9-19 DS-Cav1 [6],0.9
same,"fractional D25 reactivity, freeze-thaw",sc9-19 DS-Cav1 [6],0.04
same,"fractional D25 reactivity, osmolality 10 mM",sc9-19 DS-Cav1 [6],0.6
same,"fractional D25 reactivity, osmolality 3000 mM",sc9-19 DS-Cav1 [6],0.5
same,"fractional D25 reactivity, pH 3.5",sc9-19 DS-Cav1 [6],0.7
same,"fractional D25 reactivity, pH 10.0",sc9-19 DS-Cav1 [6],0.8
same,"fractional D25 reactivity, 50 °C",sc9-24 DS-Cav1 [7],0.9
same,"fractional D25 reactivity, 70 °C",sc9-24 DS-Cav1 [7],0.9
same,"fractional D25 reactivity, freeze-thaw",sc9-24 DS-Cav1 [7],0
same,"fractional D25 reactivity, osmolality 10 mM",sc9-24 DS-Cav1 [7],0.5
same,"fractional D25 reactivity, osmolality 3000 mM",sc9-24 DS-Cav1 [7],0.5
same,"fractional D25 reactivity, pH 3.5",sc9-24 DS-Cav1 [7],0.7
same,"fractional D25 reactivity, pH 10.0",sc9-24 DS-Cav1 [7],0.7
same,"fractional D25 reactivity, 50 °C",RSV F sc9-10 DS-Cav1 [8],0.9
same,"fractional D25 reactivity, 70 °C",RSV F sc9-10 DS-Cav1 [8],0.9
same,"fractional D25 reactivity, freeze-thaw",RSV F sc9-10 DS-Cav1 [8],0.2
same,"fractional D25 reactivity, osmolality 10 mM",RSV F sc9-10 DS-Cav1 [8],1.4
same,"fractional D25 reactivity, osmolality 3000 mM",RSV F sc9-10 DS-Cav1 [8],0.7
same,"fractional D25 reactivity, pH 3.5",RSV F sc9-10 DS-Cav1 [8],1.5
same,"fractional D25 reactivity, pH 10.0",RSV F sc9-10 DS-Cav1 [8],0.7
same,Kd,[9],420000 pM
same,Kd,bRSV F RB94 DS-Cav1 [10],24300 pM
same,Kd,[11],24300 pM
same,Kd,[12],57500 pM
same,Kd,bRSV F 391-2 DS-Cav1 [13],400 pM
same,Kd,bRSV F ATue51908 DS-Cav1 [14],10800 pM
same,fractional antibody reactivity after 10 cycles of freeze-thaw,[15],1 fraction
same,fractional antibody reactivity after 50 °C,[15],0.9 fraction
same,fractional antibody reactivity after 70 °C,[15],0.9 fraction
same,fractional antibody reactivity after osmolarity 10 mM,[15],0.7 fraction
same,fractional antibody reactivity after osmolarity 3000 mM,[15],0.8 fraction
same,fractional antibody reactivity after pH 3.5,[15],1 fraction
same,fractional antibody reactivity after pH 10.0,[15],0.9 fraction
same,fractional antibody reactivity after 10 cycles of freeze-thaw,bRSV F RB94 DS-Cav1 [16],1 fraction
same,fractional antibody reactivity after 50 °C,bRSV F RB94 DS-Cav1 [16],0.6 fraction
same,fractional antibody reactivity after 70 °C,bRSV F RB94 DS-Cav1 [16],0.1 fraction
same,fractional antibody reactivity after osmolarity 10 mM,bRSV F RB94 DS-Cav1 [16],0.8 fraction
same,fractional antibody reactivity after osmolarity 3000 mM,bRSV F RB94 DS-Cav1 [16],0.5 fraction
same,fractional antibody reactivity after pH 3.5,bRSV F RB94 DS-Cav1 [16],1.2 fraction
same,fractional antibody reactivity after pH 10.0,bRSV F RB94 DS-Cav1 [16],1.3 fraction
same,fractional antibody reactivity after 10 cycles of freeze-thaw,[17],1 fraction
same,fractional antibody reactivity after 50 °C,[17],0.9 fraction
same,fractional antibody reactivity after 70 °C,[17],0.8 fraction
same,fractional antibody reactivity after osmolarity 10 mM,[17],1 fraction
same,fractional antibody reactivity after osmolarity 3000 mM,[17],0.9 fraction
same,fractional antibody reactivity after pH 3.5,[17],1.2 fraction
same,fractional antibody reactivity after pH 10.0,[17],1 fraction
same,fractional antibody reactivity after 10 cycles of freeze-thaw,[18],1 fraction
same,fractional antibody reactivity after 50 °C,[18],1 fraction
same,fractional antibody reactivity after 70 °C,[18],1 fraction
same,fractional antibody reactivity after osmolarity 10 mM,[18],0.8 fraction
same,fractional antibody reactivity after osmolarity 3000 mM,[18],0.8 fraction
same,fractional antibody reactivity after pH 3.5,[18],0.9 fraction
same,fractional antibody reactivity after pH 10.0,[18],0.9 fraction
same,fractional antibody reactivity after 10 cycles of freeze-thaw,bRSV F 391-2 DS-Cav1 [19],1 fraction
same,fractional antibody reactivity after 50 °C,bRSV F 391-2 DS-Cav1 [19],0.7 fraction
same,fractional antibody reactivity after 70 °C,bRSV F 391-2 DS-Cav1 [19],0.1 fraction
same,fractional antibody reactivity after osmolarity 10 mM,bRSV F 391-2 DS-Cav1 [19],0.9 fraction
same,fractional antibody reactivity after osmolarity 3000 mM,bRSV F 391-2 DS-Cav1 [19],0.6 fraction
same,fractional antibody reactivity after pH 3.5,bRSV F 391-2 DS-Cav1 [19],0.9 fraction
same,fractional antibody reactivity after pH 10.0,bRSV F 391-2 DS-Cav1 [19],1.2 fraction
same,fractional antibody reactivity after 10 cycles of freeze-thaw,bRSV F ATue51908 DS-Cav1 [20],1 fraction
same,fractional antibody reactivity after 50 °C,bRSV F ATue51908 DS-Cav1 [20],0.9 fraction
same,fractional antibody reactivity after 70 °C,bRSV F ATue51908 DS-Cav1 [20],0.1 fraction
same,fractional antibody reactivity after osmolarity 10 mM,bRSV F ATue51908 DS-Cav1 [20],0.7 fraction
same,fractional antibody reactivity after osmolarity 3000 mM,bRSV F ATue51908 DS-Cav1 [20],0.4 fraction
same,fractional antibody reactivity after pH 3.5,bRSV F ATue51908 DS-Cav1 [20],0.9 fraction
B2,ELISA signal (antigenicity),RSVF Cav1only,3.33
same,ELISA signal (antigenicity),sc9-10 Cav1only,3.6
same,ELISA signal (antigenicity),sc9-10 Cav1only 98-361,1.84
same,ELISA signal (antigenicity),sc9-10 Cav1only 99-361,2.89
same,ELISA signal (antigenicity),sc9-10 Cav1only 100-361,0.92
same,ELISA signal (antigenicity),sc9-10 Cav1only 98-362,0.957
same,ELISA signal (antigenicity),sc9-10 Cav1only 99-362,1.39
same,ELISA signal (antigenicity),sc9-10 Cav1only 100-362,0.416
same,ELISA signal (antigenicity),sc9-10 Cav1only 146-458,2.34
same,ELISA signal (antigenicity),sc9-10 Cav1only 369-455,2.94
same,ELISA signal (antigenicity),[21],2.88
same,ELISA signal (antigenicity),[22],0.502
